Test results reported in publication PMC11340043.

Target: human LIFR-his (human) (UniProt P42702)
Sequence (P42702 45-833): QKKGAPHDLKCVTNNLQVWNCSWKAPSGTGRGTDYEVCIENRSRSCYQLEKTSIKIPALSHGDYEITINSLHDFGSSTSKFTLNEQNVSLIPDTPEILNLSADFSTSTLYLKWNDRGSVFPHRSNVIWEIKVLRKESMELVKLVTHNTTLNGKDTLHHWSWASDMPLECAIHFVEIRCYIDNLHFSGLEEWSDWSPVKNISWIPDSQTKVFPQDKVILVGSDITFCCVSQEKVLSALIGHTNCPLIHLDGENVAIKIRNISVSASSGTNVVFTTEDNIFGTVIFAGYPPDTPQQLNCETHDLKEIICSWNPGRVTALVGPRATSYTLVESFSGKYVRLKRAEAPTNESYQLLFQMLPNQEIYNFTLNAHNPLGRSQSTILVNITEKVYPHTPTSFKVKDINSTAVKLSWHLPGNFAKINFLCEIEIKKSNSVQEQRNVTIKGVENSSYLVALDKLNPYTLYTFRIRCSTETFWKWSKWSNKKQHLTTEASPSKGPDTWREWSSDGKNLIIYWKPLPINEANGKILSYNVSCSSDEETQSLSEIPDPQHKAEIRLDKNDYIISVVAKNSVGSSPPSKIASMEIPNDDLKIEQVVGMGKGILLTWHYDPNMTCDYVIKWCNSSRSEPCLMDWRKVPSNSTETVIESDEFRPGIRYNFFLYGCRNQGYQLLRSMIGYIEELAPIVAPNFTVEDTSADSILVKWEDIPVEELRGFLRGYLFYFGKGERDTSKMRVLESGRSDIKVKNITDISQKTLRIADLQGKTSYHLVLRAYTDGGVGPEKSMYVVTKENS

Chain of human LIF (P15018 23-202): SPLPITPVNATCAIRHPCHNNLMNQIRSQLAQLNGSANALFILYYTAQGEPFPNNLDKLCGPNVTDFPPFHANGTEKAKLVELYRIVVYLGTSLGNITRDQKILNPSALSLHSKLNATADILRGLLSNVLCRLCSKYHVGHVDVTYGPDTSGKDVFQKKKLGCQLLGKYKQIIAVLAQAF

LIF-induced p-STAT3 (Tyr705) in U266 and HCT116 cells, western blot; dose-dependent inhibition by antibody 1G11, inhibition rate at 2 µg/ml 1G11: > 90%
Substance: human LIF (from UniProt P15018 23-202) (ligand)
